Measurements: the supplement of paper PMC10126150
± gives the standard deviation of the averaged measurements.

System: ATP
Assay: switch fluorescence ratio, 500 uM ATP over buffer (Cy3 cluster intensity, sum of 5 cycles each) (fold (ratio)); higher = stronger signal-on switching upon ATP binding; sequences stand for … in TCGTCGGCAGCGTCAGATGTGTATAAGAGACAGTTTTTTTTTTTTTTTTTTTTTTTTT…TC
Conditions: aptamer strand: ATP DNA aptamer (quencher-CACCTGGGGGAGTATTGCGGAGGAAGG + anchor), 100 nM annealed; ATP concentration: 500 uM
Summary of the method: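 The fluorescence ratio divides summed target-cycle Cy3 intensity by summed buffer-cycle Cy3 intensity for each cluster and is averaged per switch-domain sequence. Cy3-labelled switching-strand clusters on a modified Illumina MiSeq flow-cell were annealed to 100 nM quencher-labelled ATP aptamer, then imaged in selection buffer and again after 15 min with 500 uM ATP at 22 °C. Five such cycles were run, with NaOH stripping and re-annealing between them, and clusters outside 100-1000 RFU were excluded.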
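Also: ATP exposure 15 min at 22 °C before imaging.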

Sequence | switch fluorescence ratio
CTGGGTATTC | 1.03 ± 0.032
CAATGGATTT | 1.026 ± 0.007
AGCCCTGGGG | 1.02 ± 0.011
AGTGTTTAAG | 1.036 ± 0.009
TATCAGGGG | 1.11 ± 0.054
TAATCCGCGG | 1.14 ± 0.041
CATGACGAAT | 1.03 ± 0.026
GGAAAAGGTT | 0.9955 ± 0.0073
GGTATAAAGA | 0.984 ± 0.049
TACATGGGTG | 1.01 ± 0.054
TCATAAGGGA | 0.997 ± 0.028
CGTGTAGTTT | 1.01 ± 0.036
GTTGTCCTTG | 1.01 ± 0.015
ATGGATAGCG | 0.968 ± 0.074
ACCATGCGTC | 0.99 ± 0.031
TTATCGTATT | 0.9872 ± 0.0053
AGGTTTCCGT | 1.02 ± 0.032
GATCCAAGGG | 1.01 ± 0.021
AAGGGCTTAT | 0.981 ± 0.019
TCAGATTGTT | 0.9623 ± 0.0028
AAAATTAAGA | 0.982 ± 0.025
ACAATCGTTT | 1.01 ± 0.014
GGGGGATAGG | 1 ± 0.025

Sequence | switch fluorescence ratio
ATCAAAAGCG | 0.96765 ± 0.00089
TTTTGTTATA | 0.9783 ± 0.0036
TGGTTAATCG | 0.9949 ± 0.0079
TTAATTAACC | 1.13 ± 0.098
GAGGGGAGGA | 1.04 ± 0.014
GTAGTATTTT | 0.994 ± 0.028
TGTTATTTTG | 0.989 ± 0.041
GGAAATGGCG | 0.981 ± 0.1
TTCCATGGCA | 1.037 ± 0.0056
TTTTGGCGGG | 0.983 ± 0.022
GATAGTGAAT | 0.962 ± 0.028
TCCGGGGCAA | 3.73 ± 2
CTGGTGAGGG | 0.9931 ± 0.0091
GACTACTAGC | 1.05 ± 0.045
GCCAGTTTGC | 0.998 ± 0.015
AATTAGCTGT | 0.9743 ± 0.0085
AGAGGGGGGG | 0.999 ± 0.038
TTTTTAAATC | 1 ± 0.044
CTTCGTATGG | 1 ± 0.029
CATATTTA | 0.992 ± 0.02
TTAGCTTTTT | 1.01 ± 0.054
TATTCAGTGC | 1.01 ± 0.046
AATCAATTAC | 1.123 ± 0.011

Sequence | switch fluorescence ratio
AATCGGGCGC | 1.01 ± 0.048
CGTAGGAGG | 0.9784 ± 0.0044
CTAAAAGTGT | 0.989 ± 0.034
AAGAAAGGTC | 0.994 ± 0.12
TCTCTGTGTT | 1.027 ± 0.0019
TAGGATTGCT | 1 ± 0.021
AATGGCCAAG | 1 ± 0.0056
TTTTTTTGTG | 0.984 ± 0.019
CATTGGTGGT | 0.989 ± 0.0039
TTTCTTGGTT | 0.991 ± 0.016
ATAGACTGAG | 0.983 ± 0.012
TTGACAGGGT | 1.03 ± 0.07
TTCAAACATC | 1 ± 0.015
GATATTATTC | 1.05 ± 0.079
CCAAGGTGGG | 1.1 ± 0.016
GTTCGGGATT | 0.981 ± 0.023
TTGTTTGGAC | 1.03 ± 0.013
CGCGGTGTGG | 1.03 ± 0.022
TTCGGGTGTG | 0.999 ± 0.025
AGCCTCTATA | 1.012 ± 0.0066
GGGAGTAGTT | 1.01 ± 0.025
GCGGGTTAAA | 0.991 ± 0.012
AAAAGTTCGT | 0.983 ± 0.024

Sequence | switch fluorescence ratio
GGCGCCGCTG | 1.016 ± 0.003
AGGAATAAAC | 1.02 ± 0.013
ATATCTGGCA | 1.02 ± 0.032
GATGCGTATG | 0.997 ± 0.02
AAGGAGAAGA | 0.993 ± 0.01
GGTACGGGGT | 1 ± 0.028
TTTTTAAACG | 0.995 ± 0.014
GTTTAAAAGC | 0.9842 ± 0.0061
TTGGGTGCCG | 1.03 ± 0.048
CTATGACAGC | 1.01 ± 0.016
CCAGCTGGGT | 1.0117 ± 0.0005
GTTGGGGAGT | 0.9776 ± 0.0062
TCATAAGTTG | 0.9957 ± 0.0042
CAGTTTTGGG | 0.9713 ± 0.0016
CTGATATTGT | 0.9844 ± 0.0066
TTCCGGCGCT | 3.42 ± 1.1
GATGTAGGAG | 0.971 ± 0.019
GTGTGACCGT | 1.02 ± 0.024
GGGGAATGGT | 1.01 ± 0.074
AAATTTACCT | 1.42 ± 0.072
GTTAACCCAT | 1.0083 ± 4.1e-05
CGGGGCGGTG | 1.02 ± 0.037
GCTGCGAGGT | 1.012 ± 0.0056

Sequence | switch fluorescence ratio
AGTTGGTATT | 0.998 ± 0.015
ATAATAATGG | 1 ± 0.037
TGCCGGTGGT | 1.01 ± 0.035
TAGTAGGTTG | 0.979 ± 0.04
CCTGGTTAGG | 0.983 ± 0.013
AGAGGATGAT | 0.962 ± 0.013
ATTATGGCGA | 1.04 ± 0.023
GGTCAGTGAT | 1.01 ± 0.06
GAATCGTAGC | 1 ± 0.022
GTAAGGAGGG | 0.981 ± 0.032
TTTATTGAGG | 1.03 ± 0.011
CCAGGCGATG | 1.05 ± 0.005
TTTGTTTTCG | 1.02 ± 0.041
GACGTATATG | 0.973 ± 0.048
CGTACGGCGG | 1.015 ± 0.0038
TGCGTTGGAG | 1.08 ± 0.057
CAGAGATTTA | 0.995 ± 0.024
GGGGCGGCGG | 0.962 ± 0.066
AGATAGGGAT | 1.04 ± 0.053
TTGGCGTTGG | 0.987 ± 0.026
GCTTGGATTG | 1.01 ± 0.054
TGCACTGGGA | 1.04 ± 0.034
TTATAAGAGT | 0.987 ± 0.025

Sequence | switch fluorescence ratio
CCGGGGTAGG | 1.04 ± 0.024
GCATAAGATG | 1 ± 0.024
GCCTTGGTGC | 1.08 ± 0.018
TGAAAAAATT | 1.02 ± 0.071
AGGGGCACGG | 1.02 ± 0.0093
AATGTCAGCT | 1.01 ± 0.021
CAGGGAAGGG | 1.01 ± 0.049
CTGGTTGGGG | 1 ± 0.017
AAGTTCCGGA | 1.034 ± 0.0072
TTGGGGCTT | 1.32 ± 0.41
AATGTTATCT | 0.994 ± 0.057
TCTAAAGGGA | 1.03 ± 0.024
CGTGGGAGAG | 0.983 ± 0.021
TTGAAGAAAG | 0.976 ± 0.021
GATCATGTTT | 0.98194 ± 0.00037
TTTGTTGAC | 0.998 ± 0.024
TTGAAAGGGT | 0.981 ± 0.087
ATACGCTGGT | 0.9993 ± 0.0042
ACACGGGGCG | 0.984 ± 0.066
ATGGAAGGGA | 1.15 ± 0.21
TTAACCGGGA | 1.02 ± 0.059
AAATGCTATG | 1.01 ± 0.031
AAGGGTGGAG | 0.996 ± 0.026

Sequence | switch fluorescence ratio
TTTGTTAAGG | 1.01 ± 0.019
GGGAAGGTAT | 0.992 ± 0.017
GGATGCGCAG | 0.987 ± 0.016
TTTAATGGAG | 1.02 ± 0.034
GTTTTTAGCA | 0.9719 ± 0.005
GAGGGGGAAG | 1 ± 0.049
GAAGGCCCTG | 1.01 ± 0.04
GATTCCCTAT | 0.99995 ± 0.00076
TTGGCTGGCT | 1.08 ± 0.071
CGCCTCGGGC | 1.02 ± 0.016
TTTGAATGAT | 0.984 ± 0.015
TTGTGCTTTA | 1.006 ± 0.0062
AAAAGAAAAG | 1.01 ± 0.051
CATACATACG | 1.42 ± 0.056
AGTAACCGGC | 0.967 ± 0.12
TGCTTTATAT | 1.18 ± 0.29
GATAAAAGTT | 1.02 ± 0.066
AAGTGGGGTT | 1.02 ± 0.029
CCTCACTAGT | 1.0949 ± 8.2e-05
